The record followed here is patent US20040009905A1 (B M R A CORPORATION B V, published 2004).

In this assay the target is T1, NPY Y1 receptor (human, UniProt P25929 1-384).
T1 construct: whole, on cells; SK-N-MC cells are said to express the NPY Y1 receptor exclusively; also called SK-N-MC cells
T1 sequence (looked up): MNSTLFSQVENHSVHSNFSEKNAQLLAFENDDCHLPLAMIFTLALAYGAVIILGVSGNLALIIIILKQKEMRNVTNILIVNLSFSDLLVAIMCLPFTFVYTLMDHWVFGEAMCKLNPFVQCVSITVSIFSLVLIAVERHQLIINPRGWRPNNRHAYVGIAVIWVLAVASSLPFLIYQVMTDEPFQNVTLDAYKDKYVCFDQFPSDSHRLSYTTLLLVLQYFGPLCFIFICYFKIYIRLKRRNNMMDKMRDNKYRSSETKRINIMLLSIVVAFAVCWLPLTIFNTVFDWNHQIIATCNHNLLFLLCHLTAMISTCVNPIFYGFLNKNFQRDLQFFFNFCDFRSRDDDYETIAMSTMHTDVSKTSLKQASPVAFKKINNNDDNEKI
Kind of assay: 125I-NPY displacement on SK-N-MC cells. The protocol:
Various peptide dilutions were incubated with SK-N-MC cells that exclusively express Y1 receptors. Cells were then washed three times with buffer and lysed in 1% Nonidet P40 (Fluka, Neu-Ulm, Germany), 8M urea, 3M acetic acid. […] At the end of the incubation period, cells were washed and lysed. Bound radioactivity was determined by gamma counting. […] Each point represents the mean ± of at least 4 experiments.

B1: Neuropeptide Y (NPY) (peptide)
peptide: not shown
modifications: C-terminal tyrosine amidated
notes: also called native NPY; Human NPY 1-36
On to B1, for which the binding result is given as “binds”.
